Laboratory results: article PMC3940976 (Scientific Reports, 2014)

T1: pre-assembled ER-Golgi cis-QabcR-SNARE complex GST-Sec22p/Sed5p/Bos1p/Bet1p (S. cerevisiae, UniProt P22214;Q01590;P25385;P22804)
T1 sequence 1: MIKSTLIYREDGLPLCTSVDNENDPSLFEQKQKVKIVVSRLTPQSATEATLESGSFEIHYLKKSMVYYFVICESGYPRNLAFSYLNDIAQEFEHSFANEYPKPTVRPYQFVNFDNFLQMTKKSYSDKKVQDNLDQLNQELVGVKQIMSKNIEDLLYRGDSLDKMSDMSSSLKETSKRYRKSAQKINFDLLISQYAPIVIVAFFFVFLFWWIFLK
T1 sequence 2: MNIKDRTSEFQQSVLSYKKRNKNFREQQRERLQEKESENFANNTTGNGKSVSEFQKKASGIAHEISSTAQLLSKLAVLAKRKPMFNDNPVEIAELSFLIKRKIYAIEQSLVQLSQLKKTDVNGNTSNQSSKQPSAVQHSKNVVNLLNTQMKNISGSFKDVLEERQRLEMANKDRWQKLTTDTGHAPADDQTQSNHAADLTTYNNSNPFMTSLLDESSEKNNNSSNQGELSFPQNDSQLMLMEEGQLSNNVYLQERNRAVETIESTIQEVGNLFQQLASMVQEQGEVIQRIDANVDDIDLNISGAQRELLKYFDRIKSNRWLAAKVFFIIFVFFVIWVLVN
T1 sequence 3: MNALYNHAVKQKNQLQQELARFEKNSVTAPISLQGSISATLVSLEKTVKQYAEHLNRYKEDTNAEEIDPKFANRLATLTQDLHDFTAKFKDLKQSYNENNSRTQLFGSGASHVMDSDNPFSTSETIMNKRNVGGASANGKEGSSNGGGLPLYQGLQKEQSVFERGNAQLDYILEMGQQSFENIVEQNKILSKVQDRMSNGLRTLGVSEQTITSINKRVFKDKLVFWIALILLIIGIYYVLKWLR
T1 sequence 4: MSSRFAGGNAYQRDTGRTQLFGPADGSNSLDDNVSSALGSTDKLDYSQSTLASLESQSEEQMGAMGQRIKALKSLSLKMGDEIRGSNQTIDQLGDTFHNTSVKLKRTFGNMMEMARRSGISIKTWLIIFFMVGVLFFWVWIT

T2: pre-assembled intra-Golgi cis-QabcR-SNARE complex GST-Sec22p/Sed5p/Gos1p/Sft1p (S. cerevisiae, UniProt P22214;Q01590;P38736;P43682)
T2 sequence 1: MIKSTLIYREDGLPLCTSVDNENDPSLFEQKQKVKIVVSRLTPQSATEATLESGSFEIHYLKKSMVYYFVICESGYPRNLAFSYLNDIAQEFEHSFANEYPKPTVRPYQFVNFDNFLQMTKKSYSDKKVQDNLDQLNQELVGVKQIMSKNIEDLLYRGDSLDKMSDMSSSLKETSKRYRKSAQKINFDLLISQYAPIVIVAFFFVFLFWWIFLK
T2 sequence 2: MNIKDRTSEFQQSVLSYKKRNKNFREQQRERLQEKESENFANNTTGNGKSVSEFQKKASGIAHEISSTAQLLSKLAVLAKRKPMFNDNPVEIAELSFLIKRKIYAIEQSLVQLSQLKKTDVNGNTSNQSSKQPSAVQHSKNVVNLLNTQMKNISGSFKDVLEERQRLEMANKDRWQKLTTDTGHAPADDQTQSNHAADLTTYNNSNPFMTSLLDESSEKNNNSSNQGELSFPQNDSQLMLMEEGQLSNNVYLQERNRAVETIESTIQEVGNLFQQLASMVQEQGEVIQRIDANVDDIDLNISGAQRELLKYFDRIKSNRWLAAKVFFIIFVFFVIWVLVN
T2 sequence 3: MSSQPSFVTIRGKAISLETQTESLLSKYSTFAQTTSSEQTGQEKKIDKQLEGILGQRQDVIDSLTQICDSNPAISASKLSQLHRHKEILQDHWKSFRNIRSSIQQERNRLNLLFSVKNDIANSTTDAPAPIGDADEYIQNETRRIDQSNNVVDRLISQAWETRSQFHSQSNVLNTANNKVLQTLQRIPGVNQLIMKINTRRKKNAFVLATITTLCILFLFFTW
T2 sequence 4: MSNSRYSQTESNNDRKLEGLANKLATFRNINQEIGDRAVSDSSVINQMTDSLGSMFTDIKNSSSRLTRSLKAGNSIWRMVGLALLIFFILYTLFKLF

T3: ER-Golgi 3Q-SNARE set Sed5p/Bos1p/Bet1p reconstituted on proteoliposomes (S. cerevisiae, UniProt Q01590;P25385;P22804)
T3 sequence 1: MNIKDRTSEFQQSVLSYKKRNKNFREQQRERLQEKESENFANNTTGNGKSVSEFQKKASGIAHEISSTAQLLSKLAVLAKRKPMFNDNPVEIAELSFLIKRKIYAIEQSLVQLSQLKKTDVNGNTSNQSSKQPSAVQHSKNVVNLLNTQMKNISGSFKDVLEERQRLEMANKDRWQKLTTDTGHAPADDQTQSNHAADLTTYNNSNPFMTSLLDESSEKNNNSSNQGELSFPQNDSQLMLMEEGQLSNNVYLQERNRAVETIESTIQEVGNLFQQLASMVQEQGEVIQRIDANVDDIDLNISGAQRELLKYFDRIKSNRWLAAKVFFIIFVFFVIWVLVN
T3 sequence 2: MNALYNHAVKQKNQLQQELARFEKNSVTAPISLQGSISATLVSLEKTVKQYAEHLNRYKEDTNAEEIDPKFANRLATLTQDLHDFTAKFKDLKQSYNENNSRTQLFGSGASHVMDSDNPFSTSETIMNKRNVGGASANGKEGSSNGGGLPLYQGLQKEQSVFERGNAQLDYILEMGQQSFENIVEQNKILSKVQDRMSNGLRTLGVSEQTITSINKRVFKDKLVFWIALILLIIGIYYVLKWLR
T3 sequence 3: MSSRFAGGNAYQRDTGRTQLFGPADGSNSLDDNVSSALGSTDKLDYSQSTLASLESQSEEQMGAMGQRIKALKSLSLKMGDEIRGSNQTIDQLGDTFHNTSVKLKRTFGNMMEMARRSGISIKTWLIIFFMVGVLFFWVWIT

T4: mixed 3Q-SNARE set Sed5p/Gos1p/Bet1p reconstituted on proteoliposomes (S. cerevisiae, UniProt Q01590;P38736;P22804)
T4 sequence 1: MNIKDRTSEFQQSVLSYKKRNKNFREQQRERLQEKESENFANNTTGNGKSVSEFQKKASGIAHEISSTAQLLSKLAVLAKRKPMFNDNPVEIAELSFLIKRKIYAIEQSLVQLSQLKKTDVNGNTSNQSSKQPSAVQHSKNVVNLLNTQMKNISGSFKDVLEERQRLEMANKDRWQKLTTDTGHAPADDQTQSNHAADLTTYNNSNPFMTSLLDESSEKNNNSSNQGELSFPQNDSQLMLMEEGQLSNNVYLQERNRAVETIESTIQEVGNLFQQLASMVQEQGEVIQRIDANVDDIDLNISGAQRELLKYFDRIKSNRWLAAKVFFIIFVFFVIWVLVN
T4 sequence 2: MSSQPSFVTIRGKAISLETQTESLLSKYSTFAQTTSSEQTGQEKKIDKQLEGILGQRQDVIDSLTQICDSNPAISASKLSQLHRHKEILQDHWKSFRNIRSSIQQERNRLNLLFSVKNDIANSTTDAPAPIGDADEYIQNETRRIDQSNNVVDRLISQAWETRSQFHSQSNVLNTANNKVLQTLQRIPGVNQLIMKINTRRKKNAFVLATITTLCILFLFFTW
T4 sequence 3: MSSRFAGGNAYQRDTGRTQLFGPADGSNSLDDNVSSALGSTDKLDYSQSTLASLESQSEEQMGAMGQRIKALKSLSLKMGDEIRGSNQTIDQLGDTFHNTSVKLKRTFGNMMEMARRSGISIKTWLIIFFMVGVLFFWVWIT

B1: His6-tagged Sly1p (natural protein)
chain: MAVEEIASRKDISLRDMQISAILKMLFLNKDLNNNDNITTITDDIFNQQEIIWKVLILDIKSTATISSVLRVNDLLKAGITVHSLIKQDRSPLPDVPAIYFVSPTKENIDIIVNDLKSDKYSEFYINFTSSLPRNLLEDLAQQVSITGKSDKIKQVYDQYLDFIVTEPELFSLEISNAYLTLNDPKTTEEEITGLCANIADGLFNTVLTINSIPIIRAAKGGPAEIIAEKLGTKLRDFVINTNSSSTSTLQGNDSLERGVLIILDRNIDFASMFSHSWIYQCMVFDIFKLSRNTVTIPLESKENGTDNTTAKPLATKKYDIEPNDFFWMENSHLPFPEAAENVEAALNTYKEEAAEITRKTGVTNISDLDPNSNNDTVQIQEVVKKLPELTAKKNTIDTHMNIFAALLSQLESKSLDTFFEVEQDPGSTKTRSRFLDILKDGKTNNLEDKLRSFIVLYLTSTTGLPKDFVQNVENYFKENDYDINALKYVYKLREFMQLSNMSLQNKSLEDGSDSAFKPSNLTLSGIYGLTEGKLQGGVGSLISGIKKLLPEKKTIPITNVVDAIMDPLNSSQKNLETTDSYLYIDPKITRGSHTRKPKRQSYNKSLVFVVGGGNYLEYQNLQEWAHSQLHNPKKVMYGSTAITTPAEFLNEISRLGASNSSNNDA

Tests used:
[1] = molecular target: T1, pre-assembled ER-Golgi cis-QabcR-SNARE …; assay: pull-down
[2] = molecular target: T2, pre-assembled intra-Golgi …; assay: pull-down
[3] = molecular target: T3, ER-Golgi 3Q-SNARE set Sed5p/Bos1p/Bet1p …; assay: co-sedimentation
[4] = molecular target: mixed 3Q-SNARE set Sed5p/Vti1p/Vam7p reconstituted on proteoliposomes (S. cerevisiae, UniProt Q01590;Q04338;P32912); assay: co-sedimentation
[5] = molecular target: T4, mixed 3Q-SNARE set Sed5p/Gos1p/Bet1p …; assay: co-sedimentation
[6] = molecular target: mixed 3Q-SNARE set Sed5p/Vti1p/Bet1p reconstituted on proteoliposomes (S. cerevisiae, UniProt Q01590;Q04338;P22804); assay: co-sedimentation
His6-tagged Sly1p = molecular target: B1; assay: co-sedimentation

Chain of mixed 3Q-SNARE set Sed5p/Vti1p/Vam7p reconstituted on proteoliposomes (P32912 whole entry, one chain of several): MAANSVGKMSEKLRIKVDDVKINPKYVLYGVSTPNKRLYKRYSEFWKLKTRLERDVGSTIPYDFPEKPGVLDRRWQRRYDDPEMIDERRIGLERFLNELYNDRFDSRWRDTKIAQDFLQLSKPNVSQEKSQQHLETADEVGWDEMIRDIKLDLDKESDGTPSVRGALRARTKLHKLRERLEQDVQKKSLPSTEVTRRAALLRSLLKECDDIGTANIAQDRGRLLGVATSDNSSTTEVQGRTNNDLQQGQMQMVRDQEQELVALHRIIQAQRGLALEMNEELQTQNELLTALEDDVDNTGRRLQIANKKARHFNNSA

Binder	binding result [1]	binding result [2]	binding result [3]	binding result [4]	binding result [5]	binding result [6]	binding result (His6-tagged Sly1p)
B1	binds	binds	binds	binds	binds	binds	–
intra-Golgi 3Q-SNARE set Sed5p/Gos1p/Sft1p reconstituted on proteoliposomes (complex) chain 1: MNIKDRTSEFQQSVLSYKKRNKNFREQQRERLQEKESENFANNTTGNGKSVSEFQKKASGIAHEISSTAQLLSKLAVLAKRKPMFNDNPVEIAELSFLIKRKIYAIEQSLVQLSQLKKTDVNGNTSNQSSKQPSAVQHSKNVVNLLNTQMKNISGSFKDVLEERQRLEMANKDRWQKLTTDTGHAPADDQTQSNHAADLTTYNNSNPFMTSLLDESSEKNNNSSNQGELSFPQNDSQLMLMEEGQLSNNVYLQERNRAVETIESTIQEVGNLFQQLASMVQEQGEVIQRIDANVDDIDLNISGAQRELLKYFDRIKSNRWLAAKVFFIIFVFFVIWVLVN chain 2: MSSQPSFVTIRGKAISLETQTESLLSKYSTFAQTTSSEQTGQEKKIDKQLEGILGQRQDVIDSLTQICDSNPAISASKLSQLHRHKEILQDHWKSFRNIRSSIQQERNRLNLLFSVKNDIANSTTDAPAPIGDADEYIQNETRRIDQSNNVVDRLISQAWETRSQFHSQSNVLNTANNKVLQTLQRIPGVNQLIMKINTRRKKNAFVLATITTLCILFLFFTW chain 3: MSNSRYSQTESNNDRKLEGLANKLATFRNINQEIGDRAVSDSSVINQMTDSLGSMFTDIKNSSSRLTRSLKAGNSIWRMVGLALLIFFILYTLFKLF	–	–	–	–	–	–	binds
mixed 3Q-SNARE set Sed5p/Vti1p/Tlg1p reconstituted on proteoliposomes (complex) chain 1: MNIKDRTSEFQQSVLSYKKRNKNFREQQRERLQEKESENFANNTTGNGKSVSEFQKKASGIAHEISSTAQLLSKLAVLAKRKPMFNDNPVEIAELSFLIKRKIYAIEQSLVQLSQLKKTDVNGNTSNQSSKQPSAVQHSKNVVNLLNTQMKNISGSFKDVLEERQRLEMANKDRWQKLTTDTGHAPADDQTQSNHAADLTTYNNSNPFMTSLLDESSEKNNNSSNQGELSFPQNDSQLMLMEEGQLSNNVYLQERNRAVETIESTIQEVGNLFQQLASMVQEQGEVIQRIDANVDDIDLNISGAQRELLKYFDRIKSNRWLAAKVFFIIFVFFVIWVLVN chain 2: MSSLLISYESDFKTTLEQAKASLAEAPSQPLSQRNTTLKHVEQQQDELFDLLDQMDVEVNNSIGDASERATYKAKLREWKKTIQSDIKRPLQSLVDSGDRDRLFGDLNASNIDDDQRQQLLSNHAILQKSGDRLKDASRIANETEGIGSQIMMDLRSQRETLENARQTLFQADSYVDKSIKTLKTMTRRLVANKFISYAIIAVLILLILLVLFSKFK chain 3: […]	–	–	–	–	–	–	binds
